Test results reported in the supplement of paper PMC10724198.
± gives the standard deviation of the averaged measurements.

Tests used:
[1] = system: Saccharomyces cerevisiae; test: protein stability index of tFT-peptide fusion (C-terminal peptide) (PSI (0-1 scale)); higher = more stable (slower turnover)
Procedure: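 MPS profiling in S. cerevisiae of the tFT-X12 degron library: putative degron peptides plus stable controls, 12 aa, fused to the C-terminus of a sfGFP-mCherry timer. Cells are FACS-sorted into 8 mCherry/sfGFP bins and deep-sequenced. PSI runs from 0 (unstable) to 1 (stable). Backgrounds are wild type, das1Δ and doa10Δ at 30 °C, and wild type, das1Δ, cdc34-1 and cdc53-1 at 37 °C; 2-3 technical replicates each.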

[2] = system: Saccharomyces cerevisiae; test: as above; details: genetic background: wild type; temperature: 30 C
[3] = genetic background: cdc34-1, temperature: 37 C
[4] = genetic background: cdc53-1, temperature: 37 C
[5] = genetic background: das1 deletion, temperature: 30 C
[6] = genetic background: das1 deletion, temperature: 37 C
[7] = genetic background: doa10 deletion, temperature: 30 C
[8] = genetic background: wild type, temperature: 30 C
[9] = genetic background: wild type, temperature: 37 C
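Further: PSI is a weighted mean of sequencing reads over stability bins, variants kept only with over 10 reads, mCherry proximal and sfGFP distal, peptide attached via GGGS linker.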

PPHPLHIPRRLA
protein stability index [1, 3]: 0.631 ± 0.025
protein stability index [1, 4]: 0.724 ± 0.026
protein stability index [1, 5]: 0.691 ± 0.02
protein stability index [1, 6]: 0.743 ± 0.017
protein stability index [1, 7]: 0.185 ± 0.0086
protein stability index [1, 8]: 0.218 ± 0.022
protein stability index [1, 9]: 0.436 ± 0.048
protein stability index [2]: 0.226 ± 0.033

PPLSRLAVFIVV
protein stability index [1, 3]: 0.4397 ± 0.0027
protein stability index [1, 4]: 0.487 ± 0.052
protein stability index [1, 5]: 0.359 ± 0.036
protein stability index [1, 6]: 0.524 ± 0.008
protein stability index [1, 7]: 0.3027 ± 0.0018
protein stability index [1, 8]: 0.353 ± 0.025
protein stability index [1, 9]: 0.4823 ± 0.003
protein stability index [2]: 0.4605 ± 0.0023

PPRPSPPPHPLP
protein stability index [1, 3]: 0.658 ± 0.028
protein stability index [1, 4]: 0.7181 ± 0.0022
protein stability index [1, 5]: 0.6737 ± 0.003
protein stability index [1, 6]: 0.727 ± 0.011
protein stability index [1, 7]: 0.681 ± 0.017
protein stability index [1, 8]: 0.686 ± 0.01
protein stability index [1, 9]: 0.6974 ± 0.0035
protein stability index [2]: 0.746 ± 0.059

PPVRCVRLPLSS
protein stability index [1, 3]: 0.687 ± 0.035
protein stability index [1, 4]: 0.744 ± 0.0097
protein stability index [1, 5]: 0.649 ± 0.029
protein stability index [1, 6]: 0.717 ± 0.01
protein stability index [1, 7]: 0.647 ± 0.015
protein stability index [1, 8]: 0.6376 ± 0.0037
protein stability index [1, 9]: 0.689 ± 0.0054
protein stability index [2]: 0.63 ± 0.26

PRFRALLLIPVR
protein stability index [1, 3]: 0.0611 ± 0.016
protein stability index [1, 4]: 0.158 ± 0.029
protein stability index [1, 5]: 0.178 ± 0.046
protein stability index [1, 6]: 0.281 ± 0.022
protein stability index [1, 7]: 0.14 ± 0.026
protein stability index [1, 8]: 0.17 ± 0.018
protein stability index [1, 9]: 0.24 ± 0.033
protein stability index [2]: 0.27 ± 0.012

PRGFVRVDLLIF
protein stability index [1, 3]: 0.302 ± 0.021
protein stability index [1, 4]: 0.481 ± 0.07
protein stability index [1, 5]: 0.273 ± 0.027
protein stability index [1, 6]: 0.442 ± 0.017
protein stability index [1, 7]: 0.191 ± 0.0062
protein stability index [1, 8]: 0.208 ± 0.031
protein stability index [1, 9]: 0.37 ± 0.022
protein stability index [2]: 0.383 ± 0.064

PRGKGSSGELCV
protein stability index [1, 3]: 0.683 ± 0.038
protein stability index [1, 4]: 0.7344 ± 0.0044
protein stability index [1, 5]: 0.662 ± 0.025
protein stability index [1, 6]: 0.707 ± 0.03
protein stability index [1, 7]: 0.6363 ± 0.0063
protein stability index [1, 8]: 0.647 ± 0.033
protein stability index [1, 9]: 0.712 ± 0.012
protein stability index [2]: 0.578 ± 0.15

PRPISRRTLILS
protein stability index [1, 3]: 0.642 ± 0.047
protein stability index [1, 4]: 0.7053 ± 0.0034
protein stability index [1, 5]: 0.545 ± 0.026
protein stability index [1, 6]: 0.721 ± 0.0088
protein stability index [1, 7]: 0.308 ± 0.0098
protein stability index [1, 8]: 0.354 ± 0.023
protein stability index [1, 9]: 0.554 ± 0.02
protein stability index [2]: 0.472 ± 0.062

PRVPILVVFCSF
protein stability index [1, 3]: 0.423 ± 0.013
protein stability index [1, 4]: 0.452 ± 0.014
protein stability index [1, 5]: 0.286 ± 0.041
protein stability index [1, 6]: 0.532 ± 0.016
protein stability index [1, 7]: 0.22 ± 0.0097
protein stability index [1, 8]: 0.257 ± 0.02
protein stability index [1, 9]: 0.463 ± 0.048
protein stability index [2]: 0.402 ± 0.063

PSFVEVAFAVCC
protein stability index [1, 3]: 0.569 ± 0.037
protein stability index [1, 4]: 0.555 ± 0.039
protein stability index [1, 5]: 0.347 ± 0.045
protein stability index [1, 6]: 0.5575 ± 0.0034
protein stability index [1, 7]: 0.339 ± 0.03
protein stability index [1, 8]: 0.366 ± 0.0077
protein stability index [1, 9]: 0.541 ± 0.019
protein stability index [2]: 0.451 ± 0.058

PTKRLFNNNKKI
protein stability index [1, 3]: 0.589 ± 0.13
protein stability index [1, 4]: 0.686 ± 0.057
protein stability index [1, 5]: 0.649 ± 0.03
protein stability index [1, 6]: 0.731 ± 0.013
protein stability index [1, 7]: 0.184 ± 0.0066
protein stability index [1, 8]: 0.161 ± 0.03
protein stability index [1, 9]: 0.408 ± 0.024
protein stability index [2]: 0.308 ± 0.015

PWAQCVLLWVVV
protein stability index [1, 3]: 0.459 ± 0.043
protein stability index [1, 4]: 0.495 ± 0.021
protein stability index [1, 5]: 0.397 ± 0.032
protein stability index [1, 6]: 0.5401 ± 0.0014
protein stability index [1, 7]: 0.329 ± 0.015
protein stability index [1, 8]: 0.359 ± 0.025
protein stability index [1, 9]: 0.4776 ± 0.004
protein stability index [2]: 0.457 ± 0.0064

PWIASCRISFLL
protein stability index [1, 3]: 0.6766 ± 0.0032
protein stability index [1, 4]: 0.734 ± 0.014
protein stability index [1, 5]: 0.6 ± 0.0099
protein stability index [1, 6]: 0.7393 ± 0.0037
protein stability index [1, 7]: 0.338 ± 0.0046
protein stability index [1, 8]: 0.347 ± 0.012
protein stability index [1, 9]: 0.532 ± 0.029
protein stability index [2]: 0.402 ± 0.0046

QARVFWIIIGTA
protein stability index [1, 3]: 0.33 ± 0.029
protein stability index [1, 4]: 0.412 ± 0.03
protein stability index [1, 5]: 0.241 ± 0.029
protein stability index [1, 6]: 0.482 ± 0.011
protein stability index [1, 7]: 0.163 ± 0.011
protein stability index [1, 8]: 0.194 ± 0.026
protein stability index [1, 9]: 0.376 ± 0.023
protein stability index [2]: 0.343 ± 0.0078

QFLSLSLPFALF
protein stability index [1, 3]: 0.7057 ± 0.0026
protein stability index [1, 4]: 0.763 ± 0.014
protein stability index [1, 5]: 0.64 ± 0.029
protein stability index [1, 6]: 0.748 ± 0.054
protein stability index [1, 7]: 0.428 ± 0.041
protein stability index [1, 8]: 0.45 ± 0.019
protein stability index [1, 9]: 0.636 ± 0.052
protein stability index [2]: 0.524 ± 0.036

QHIDTLAKTHIT
protein stability index [1, 3]: 0.73 ± 0.036
protein stability index [1, 4]: 0.74493 ± 0.00055
protein stability index [1, 5]: 0.632 ± 0.008
protein stability index [1, 6]: 0.7219 ± 0.005
protein stability index [1, 7]: 0.605 ± 0.03
protein stability index [1, 8]: 0.634 ± 0.033
protein stability index [1, 9]: 0.7 ± 0.012
protein stability index [2]: 0.606 ± 0.15

QTGRVRGFVVSG
protein stability index [1, 3]: 0.689 ± 0.037
protein stability index [1, 4]: 0.726 ± 0.024
protein stability index [1, 5]: 0.632 ± 0.032
protein stability index [1, 6]: 0.723 ± 0.02
protein stability index [1, 7]: 0.645 ± 0.021
protein stability index [1, 8]: 0.65 ± 0.008
protein stability index [1, 9]: 0.719 ± 0.028
protein stability index [2]: 0.701 ± 0.048

RALCPVPLLASS
protein stability index [1, 3]: 0.55 ± 0.0098
protein stability index [1, 4]: 0.59 ± 0.034
protein stability index [1, 5]: 0.435 ± 0.026
protein stability index [1, 6]: 0.5981 ± 0.00094
protein stability index [1, 7]: 0.427 ± 0.026
protein stability index [1, 8]: 0.455 ± 0.018
protein stability index [1, 9]: 0.553 ± 0.024
protein stability index [2]: 0.502 ± 0.1

RCFLPVFCFVVF
protein stability index [1, 3]: 0.275 ± 0.0069
protein stability index [1, 4]: 0.272 ± 0.0068
protein stability index [1, 5]: 0.242 ± 0.037
protein stability index [1, 6]: 0.413 ± 0.006
protein stability index [1, 7]: 0.278 ± 0.014
protein stability index [1, 8]: 0.227 ± 0.023
protein stability index [1, 9]: 0.36 ± 0.0038
protein stability index [2]: 0.314 ± 0.018
